Test results as given in patent US11279770 (MERUS N V, dated 2022).

Tests used:
[1] = molecular target: T1, human ErbB-2 (HER2) (human, UniProt P04626 23-1255); assay: cell-based or functional assay
[2] = molecular target: T1, human ErbB-2 (HER2); assay: antigen titration ELISA: coated monomeric HER2 (ECD-Erbb-2) varied about 0.019-2.5 µg/ml (x axis), IgG fixed at 10 µg/ml as the text says; readout OD450 [lower panel]
Protocol: Wells of the ELISA plates were blocked with PBS (pH 7.2) containing 5% BSA for 1 hour at 37° C. Selected antibodies were tested in duplo at a concentration of 10 µg/ml diluted in PBS-2% BSA and allowed to bind for 2 hours at 25° C. As a control the procedure was performed simultaneously with an antibody specific for the coated antigens and a negative control antibody. The ELISA plates were washed 5 times with PBS-T (PBS-0.05% v/v Tween 20). Bound IgG was detected with 1:2000 diluted IIRP-conjugate (Goat anti-mouse IgG, BD Biosciences) and was allowed to bind for 2 hours at 25° C. The ELISA plates were washed 5 times with PBS-T (PBS-0.05% Tween 20) and bound IgG was detected by means of OD492 nm measurement.

[3] = molecular target: human HER2 and HER3 co-expressed on tumour cells (human, UniProt P04626 23-1255; P21860 20-1342); assay: cell-based or functional assay
[4] = molecular target: T2, ErbB2-Fc (RND systems) (UniProt P04626 23-652); assay: SPR (BIACORE T100), ErbB2-Fc on CM5 chip, bispecific as analyte, 1:1 monovalent model
T2 construct: Bought protein; also called Fc-HER2; Her2-Fc; not shown: Fc part of the bought fusion protein

[5] = molecular target: T3, human ErbB-3 (HER3) (human, UniProt P21860 20-1342); assay: FACS on CHO-K1 cells with HER3 constructs; epitope group 3 = 'Reactivity to rat, cyno and human HER3' (Table 5)
T3 construct: whole, on cells; On tumour cell lines

[6] = molecular target: T3, human ErbB-3 (HER3); assay: cell-based or functional assay

B1: PG2973 (antibody, IgG1, V domains shown)
VH: QVQLKQSGAELVRPGASVKLSCKASGYIFTGYYINWLRQRPGQGLEWIAKIYPGSGNTYYNEKFRGKATLTAEESSSTAYMQLSSLTSEDSAVYFCARGPHYDYDGPWFVYWGQGTLVTVSS
VL: not shown
[1]
  HRG dependent MCF-7 proliferation assay, % activity compared to #Ab6, 1 µg/ml IgG: 58%
  SKBR-3 proliferation assay, % activity compared to trastuzumab, 1 µg/ml IgG: 49%

B2: PG2930 (antibody, IgG1, V domains shown)
VH: EVQLQQSGAELVKPGASVMMSCKVSGYTFTSYPIAWMKQVHGKSLEWIGNFHPYSDDTKYNENFKGKATLTVEKSSSTVYLELSRLTSDDSAVYYCARSNPLYYFAMDYWGQGTSVTVSS
VL: not shown
notes: Monospecific IgG1; also called MF2930; copies: 2 + 2
[1]
  HRG dependent MCF-7 proliferation assay, % activity compared to #Ab6, 1 µg/ml IgG: 7%
  SKBR-3 proliferation assay, % activity compared to trastuzumab, 1 µg/ml IgG: 0%
[2]
  EC50 (read off the curve): ~0.7 µg/mL

B3: PB3448 (MF1849xMF3178) (bispecific antibody, IgG1, V domains shown)
VH 1: QVQLVESGGGVVQPGRSLRLSCAASGFTFSSYGMHWVRQAPGKGLEWVAVISYDGSNKYYADSVKGRFTISRDNSKNTLYLQMNSLRAEDTAVYYCAKGDYGSYSSYAFDYWGQGTLVTVSS
VH 2: not shown
VL: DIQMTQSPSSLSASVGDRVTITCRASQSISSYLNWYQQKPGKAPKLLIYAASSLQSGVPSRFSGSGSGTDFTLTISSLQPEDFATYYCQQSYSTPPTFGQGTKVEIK
notes: IgG1 bispecific with CH3 heterodimerisation mutations
[3]
  BxPC3 % Inhibition: -22%
  MCF-7 IC50 (pM), HRG dependent proliferation: 371 pM
[4]
  Kd: 5.4 nM

B4: PG3099 (antibody, IgG1, V domains shown)
VH: EVQLQQPGAELVRPGTSVKLSCKASGYTFTSYWMHWVKQRPGQGLEWIGILDPSDSYTTYNQKFKGKATLTVDTSSSIAYMQLSSLTSEDSALYYCARGGDYDEGGAMDYWGQGTSVTVSS
VL: not shown
notes: Monospecific IgG1; also called MF3099; copies: 2 + 2
[5]
  binding result: binds

B5: #Ab6 (antibody, V domains shown)
VH: EVQLLESGGGLVQPGGSLRLSCAASGFTFSHYVMAWVRQAPGKGLEWVSSISSSGGWTLYADSVKGRFTISRDNSKNTLYLQMNSLRAEDTAVYYCTRGLKMATIFDYWGQGTLVTVSS
VL: QSALTQPASVSGSPGQSITISCTGTSSDVGSYNVVSWYQQHPGKAPKLIIYEVSQRPSGVSNRFSGSKSGNTASLTISGLQTEDEADYYCCSYAGSSIFVIFGGGTKVTVL
[6]
  BxPC3 % Inhibition: -7%
  MCF-7 IC50 (pM), HRG dependent proliferation: 504 pM

B6: PB3566 (MF3004xMF3178) (bispecific antibody, IgG1, V domains shown)
VH 1: QVQLKQSGAELVRPGASVKLSCKASGYTFTGYYINWVKQRPGQGLEWIARIYPGSGYTYYNEKFKGKATLTAEESSSTAYMHLSSLTSEDSAVYFCARPHYGYDDWYFGVWGTGTTVTVSS
VH 2: not shown
VL: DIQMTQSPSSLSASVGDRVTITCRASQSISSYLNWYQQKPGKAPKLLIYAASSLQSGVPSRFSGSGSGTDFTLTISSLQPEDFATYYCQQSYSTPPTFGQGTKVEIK
[3]
  BxPC3 % Inhibition: -20%
  MCF-7 IC50 (pM), HRG dependent proliferation: 7.9 pM

B7: PG3004 (antibody, IgG1, V domains shown)
VH: B6 VH 1
VL: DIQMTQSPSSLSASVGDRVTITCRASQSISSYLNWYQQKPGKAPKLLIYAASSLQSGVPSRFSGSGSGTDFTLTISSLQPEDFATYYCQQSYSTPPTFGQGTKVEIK
[1]
  HRG dependent MCF-7 proliferation assay, % activity compared to #Ab6, 1 µg/ml IgG: 56%
  SKBR-3 proliferation assay, % activity compared to trastuzumab, 1 µg/ml IgG: 49%
